In the Human Domainome abundance scans (Beltran et al. 2025):
± gives the uncertainty stated by the source.

B1: Membrane-associated guanylate kinase, WW and PDZ domain-containing protein 2, residues 296 to 340; numbered along this chain, Q86UL8 (parent)
chain: EDNEEPDPLPDNWEMAYTEKGEVYFIDHNTKTTSWLDPRLAKKAK

Variants of: B1
Assay: abundance fitness (aPCA) (normalised: wild type 0, dead -1); higher = more abundant; growth selection in yeast, the domain comes from the species named
Settings: Homo sapiens

| Variant | abundance fitness |
| --- | --- |
| P6G | -0.004 ± 0.037 |
| P6H | 0.091 ± 0.068 |
| P6E | -0.138 ± 0.061 |
| P6R | 0.029 ± 0.041 |
| P6D | -0.266 ± 0.05 |
| P6I | -0.088 ± 0.061 |
| P6W | 0.043 ± 0.046 |
| P6A | -0.001 ± 0.041 |
| P6L | 0.014 ± 0.044 |
| P6N | -0.025 ± 0.064 |
| P6C | -0.081 ± 0.04 |
| P6V | 0.034 ± 0.044 |
| P6Y | -0.017 ± 0.054 |
| P6S | 0.003 ± 0.049 |
| P10K | -0.498 ± 0.072 |
| P10W | -0.469 ± 0.046 |
| P10R | -0.532 ± 0.04 |
| P10N | -0.465 ± 0.052 |
| P10S | -0.47 ± 0.06 |
| P10D | -0.341 ± 0.045 |
| P10C | -0.654 ± 0.13 |
| P10L | -0.449 ± 0.054 |
| P10I | -0.637 ± 0.069 |
| P10G | -0.436 ± 0.041 |

| Variant | abundance fitness |
| --- | --- |
| P10A | -0.528 ± 0.055 |
| P10Q | -0.469 ± 0.087 |
| P10H | -0.614 ± 0.061 |
| P10M | -0.166 ± 0.32 |
| P10F | -0.615 ± 0.091 |
| P10Y | -0.508 ± 0.061 |
| P10T | -0.468 ± 0.063 |
| P10E | -0.376 ± 0.051 |
| P10V | -0.54 ± 0.044 |
| N12R | -0.044 ± 0.051 |
| N12E | -0.303 ± 0.12 |
| N12S | -0.199 ± 0.077 |
| N12T | -0.224 ± 0.093 |
| N12G | 0.088 ± 0.061 |
| N12W | -0.271 ± 0.091 |
| N12M | -0.292 ± 0.072 |
| N12D | -0.136 ± 0.064 |
| N12V | -0.703 ± 0.14 |
| N12C | -0.163 ± 0.12 |
| W13G | -0.787 ± 0.054 |
| W13V | -0.32 ± 0.17 |
| W13S | -0.556 ± 0.069 |
| W13L | -0.385 ± 0.056 |
| W13R | -0.642 ± 0.087 |

| Variant | abundance fitness |
| --- | --- |
| D11H | -0.029 ± 0.062 |
| D11K | -0.04 ± 0.06 |
| D11N | -0.011 ± 0.07 |
| D11E | 0.033 ± 0.052 |
| D11W | -0.074 ± 0.044 |
| D11Q | 0.091 ± 0.15 |
| D11G | -0.096 ± 0.043 |
| D11T | 0.042 ± 0.056 |
| D11A | 0.007 ± 0.061 |
| D11M | -0.015 ± 0.098 |
| D11V | -0.064 ± 0.051 |
| D11R | 0.032 ± 0.043 |
| D11L | 0.073 ± 0.063 |
| D11P | -0.099 ± 0.11 |
| D11S | 0.421 ± 0.18 |
| E1K | 0.058 ± 0.079 |
| E1S | -0.154 ± 0.082 |
| E1G | 0.009 ± 0.048 |
| E1R | 0.128 ± 0.063 |
| E1M | -0.067 ± 0.07 |
| E1L | -0.023 ± 0.077 |
| E1Y | 0.094 ± 0.12 |
| E1P | 0 ± 0.11 |
| E1I | -1.23 ± 0.15 |

| Variant | abundance fitness |
| --- | --- |
| E1H | -0.109 ± 0.31 |
| E1V | 0.035 ± 0.046 |
| E14S | -0.083 ± 0.097 |
| E14F | -0.705 ± 0.1 |
| E14T | -0.162 ± 0.084 |
| E14Q | 0.032 ± 0.12 |
| E14W | -1.04 ± 0.14 |
| E14L | -0.561 ± 0.069 |
| E14D | -0.097 ± 0.23 |
| E14N | -0.241 ± 0.057 |
| E14R | -0.415 ± 0.06 |
| E14A | -0.47 ± 0.18 |
| E14V | -0.264 ± 0.048 |
| K20M | -0.004 ± 0.059 |
| K20L | -0.078 ± 0.052 |
| K20C | -0.009 ± 0.092 |
| K20D | -0.022 ± 0.063 |
| K20I | -0.12 ± 0.065 |
| K20E | 0.027 ± 0.067 |
| K20G | -0.011 ± 0.042 |
| K20A | -0.02 ± 0.043 |
| N3H | 0.058 ± 0.097 |
| N3D | -0.258 ± 0.061 |
| N3F | -0.029 ± 0.41 |

| Variant | abundance fitness |
| --- | --- |
| N3A | -0.099 ± 0.059 |
| N3Q | 0.055 ± 0.06 |
| N3P | -0.109 ± 0.092 |
| N3V | -0.042 ± 0.052 |
| N3C | -0.031 ± 0.2 |
| N3E | -0.173 ± 0.048 |
| N3Y | 0.037 ± 0.08 |
| N3L | 0.009 ± 0.045 |
| N3W | 0.059 ± 0.055 |
| N3M | 0.083 ± 0.055 |
| N3S | 0.021 ± 0.049 |
| N3R | 0.157 ± 0.053 |
| N3G | -0.081 ± 0.059 |
| L9S | -0.453 ± 0.5 |
| E4Q | 0.306 ± 0.11 |
| E4A | 0.016 ± 0.056 |
| E4G | 0.1 ± 0.07 |
| E4C | -0.005 ± 0.1 |
| E4V | 0.027 ± 0.044 |
| E4R | 0.109 ± 0.056 |
| E4L | 0.03 ± 0.096 |
| E4P | 0.138 ± 0.18 |
| E4S | 0.078 ± 0.089 |
| D7G | 0.104 ± 0.046 |

| Variant | abundance fitness |
| --- | --- |
| D7Q | 0.054 ± 0.12 |
| D7V | 0.134 ± 0.06 |
| D7W | 0.01 ± 0.057 |
| D7S | 0.04 ± 0.07 |
| D7A | 0.185 ± 0.077 |
| D7E | -0.008 ± 0.056 |
| D7R | 0.044 ± 0.058 |
| D7L | 0.04 ± 0.07 |
| Y17R | 0.049 ± 0.055 |
| Y17P | -0.828 ± 0.22 |
| Y17C | 0.004 ± 0.067 |
| Y17H | 0.066 ± 0.089 |
| Y17A | -0.025 ± 0.056 |
| Y17S | -0.03 ± 0.064 |
| Y17N | -0.042 ± 0.15 |
| Y17K | -0.048 ± 0.1 |
| Y17I | 0.017 ± 0.1 |
| Y17F | -0.029 ± 0.045 |
| Y17W | 0.021 ± 0.048 |
| Y17L | 0.024 ± 0.069 |
| Y17T | -0.039 ± 0.14 |
| Y17G | -0.349 ± 0.072 |
| Y17E | -0.42 ± 0.47 |
| Y17D | -0.355 ± 0.066 |

| Variant | abundance fitness |
| --- | --- |
| A16G | -0.109 ± 0.052 |
| A16C | -0.274 ± 0.089 |
| A16I | -0.529 ± 0.15 |
| A16W | -0.598 ± 0.07 |
| A16S | 0.002 ± 0.074 |
| A16K | -0.119 ± 0.064 |
| A16T | -0.335 ± 0.071 |
| A16Y | -0.432 ± 0.093 |
| A16M | -0.254 ± 0.065 |
| A16R | -0.127 ± 0.052 |
| A16E | -0.239 ± 0.062 |
| A16V | -0.271 ± 0.053 |
| A16L | -0.337 ± 0.055 |
| A16D | -0.398 ± 0.14 |
| A16F | -0.709 ± 0.23 |
| M15R | -0.106 ± 0.076 |
| M15V | -0.121 ± 0.084 |
| M15G | -0.459 ± 0.11 |
| M15C | -0.127 ± 0.095 |
| M15H | -0.428 ± 0.15 |
| M15L | -0.026 ± 0.06 |
| M15W | -0.198 ± 0.092 |
| M15P | -0.308 ± 0.085 |
